± gives the uncertainty stated by the source.
Test: self-splicing fitness, log relative to wild type (ln ratio); higher = more splicing; Tetrahymena group I intron in knt gene, E. coli kanamycin selection, DiMSum; sequences stand for … in CUCUCU…GGAGGGAAAAGUUAUCAGGCAUGCACCUGGUAGCUAGUCUUUAAACCAAUAGAUUGCAUCGGUUUAAAAGGCAAGACCGUCAAAUUGCGGGAAAGGGGUCAACAGCCGUUCAGUACCAAGUCUCAGGGGAAACUUUGAGAUGGCCUUGCAAAGGGUAUGGUAAUAAGCUGACGGACAUGGUCCUAACCACGCAGCCAAGUCCUAAGUCAACAGAUCUUCUGUUGAUAUGGAUGCAGUUCACAGACUAAAUGUCGGUCGGGGAAGAUGUAUUCUUCUCAUAAGAUAUAGUCGGACCUCUCCUUAAUGGGAGCUAGCGGAUGAAGUGAUGCAACACUGGAGCCGCUGGGAACUAAUUUGUAUGCGAAAGUAUAUUGAUUAGUUUUGGAGUACUCGUGGUCG
Summary of the method: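 Fitness was computed with DiMSum as the error-weighted combination of replicate fold changes, kanamycin versus none, each normalised to wild type. The library randomised all eight intron nucleotides of the P1ex region, with the intron placed in the knt kanamycin-resistance gene on pET-22b(+) in E. coli BL21(DE3). Six replicate transformations were grown overnight at 37°C or 30°C on LB agar with or without 25 μg/mL kanamycin, plus 100 μg/mL carbenicillin, 50 μM IPTG and 0.2% rhamnose. Pooled colonies were amplicon-sequenced on an Illumina HiSeq 2500.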

| Sequence | self-splicing fitness (ln) (37 °C) | self-splicing fitness (ln) (30 °C) |
| --- | --- | --- |
| CGUGAGCAAUAUUACGAAAC | -0.708 ± 0.31 |  |
| CGUGAGCAAUAUUACGAAAG | -0.94 ± 0.16 | -1.89 ± 0.17 |
| CGUGAGCAAUAUUACGAAGG | -1.42 ± 0.14 | -2.37 ± 0.14 |
| CGUGAGCAAUAUUACGAUCA | -0.309 ± 0.12 | -2.06 ± 0.14 |
| CGUGAGCAAUAUUACGCGCA | -0.382 ± 0.27 | -0.962 ± 0.38 |
| CGUGAGCAAUAUUACGCGUU | -2.72 ± 0.2 | -3.11 ± 0.28 |
| CGUGAGCAAUAUUACGGACC |  | -2.51 ± 0.49 |
| CGUGAGCAAUAUUACGGCAG | -0.441 ± 0.14 | -0.858 ± 0.11 |
| CGUGAGCAAUAUUACGGCGU | -1.32 ± 0.17 | -2.44 ± 0.18 |
| CGUGAGCAAUAUUACGGGCA | -1.63 ± 0.16 | -1.6 ± 0.12 |
| CGUGAGCAAUAUUACGGGUC | -2.2 ± 0.19 | -4 ± 0.24 |
| CGUGAGCAAUAUUACGUAAC | -2.78 ± 0.43 | -3.13 ± 0.39 |
| CGUGAGCAAUAUUACGUCCA | -2.38 ± 0.34 | -2.37 ± 0.26 |
| CGUGAGCAAUAUUACGUCUU |  | -2.26 ± 0.27 |
| CGUGAGCAAUAUUACGUGUA | -3.91 ± 0.31 | -3.18 ± 0.22 |
| CGUGAGCAAUAUUACGUUCU | -2.2 ± 0.27 | -2.74 ± 0.28 |
| CGUGAGCAAUAUUACGUUUC | -2.23 ± 0.19 | -3.19 ± 0.23 |
| CGUUAGCAAUAUUACGAACG | -2.62 ± 0.38 | -2.85 ± 0.3 |
| CGUUAGCAAUAUUACGACAA | -1.15 ± 0.17 | -1.99 ± 0.17 |
| CGUUAGCAAUAUUACGAGGA | -2.13 ± 0.27 | -2.48 ± 0.27 |
| CGUUAGCAAUAUUACGAUAC | -2.64 ± 0.44 |  |
| CGUUAGCAAUAUUACGAUGC | -1.63 ± 0.31 | -0.888 ± 0.21 |
| CGUUAGCAAUAUUACGAUUA | -1.14 ± 0.22 | -2.16 ± 0.26 |
| CGUUAGCAAUAUUACGCCUU | -2.18 ± 0.19 | -3.33 ± 0.43 |
| CGUUAGCAAUAUUACGCUGG | -1.83 ± 0.31 | -1.45 ± 0.28 |

| Sequence | self-splicing fitness (ln) (37 °C) | self-splicing fitness (ln) (30 °C) |
| --- | --- | --- |
| CGUUAGCAAUAUUACGGCGA | -1.61 ± 0.11 | -1.6 ± 0.11 |
| CGUUAGCAAUAUUACGGGCC | -1.75 ± 0.24 | -1.91 ± 0.18 |
| CGUUAGCAAUAUUACGGUAG | -0.104 ± 0.11 | -0.514 ± 0.097 |
| CGUUAGCAAUAUUACGUAUU | -2.64 ± 0.19 | -3.02 ± 0.18 |
| CGUUAGCAAUAUUACGUGAU | -2.45 ± 0.2 | -3.16 ± 0.24 |
| CGUUAGCAAUAUUACGUGCG | -2.71 ± 0.15 | -3.7 ± 0.14 |
| CUAAAGCAAUAUUACGAGAA | -3.25 ± 0.33 | -2.99 ± 0.19 |
| CUAAAGCAAUAUUACGAUAG | 0.313 ± 0.085 | 0.0858 ± 0.072 |
| CUAAAGCAAUAUUACGCACU | -2.34 ± 0.32 | -3.41 ± 0.2 |
| CUAAAGCAAUAUUACGCAUU | -1.51 ± 0.14 | -4.21 ± 0.21 |
| CUAAAGCAAUAUUACGCUAU | -2.75 ± 0.3 | -4.21 ± 0.31 |
| CUAAAGCAAUAUUACGCUCG | -0.626 ± 0.15 | -0.715 ± 0.12 |
| CUAAAGCAAUAUUACGCUGG | -2.11 ± 0.25 | -3.74 ± 0.22 |
| CUAAAGCAAUAUUACGCUGU | -2.39 ± 0.21 | -3.72 ± 0.29 |
| CUAAAGCAAUAUUACGGGGC | -2.78 ± 0.28 | -2.86 ± 0.36 |
| CUAAAGCAAUAUUACGGUAC | -2.35 ± 0.25 |  |
| CUAAAGCAAUAUUACGUAAG | -0.575 ± 0.085 | -0.149 ± 0.07 |
| CUAAAGCAAUAUUACGUAAU | -2.54 ± 0.23 | -4.33 ± 0.29 |
| CUAAAGCAAUAUUACGUAGA | -4.04 ± 0.46 | -3.64 ± 0.19 |
| CUAAAGCAAUAUUACGUAGG | -1.2 ± 0.11 | -1.15 ± 0.088 |
| CUAAAGCAAUAUUACGUAUG | 0.0627 ± 0.081 | -0.125 ± 0.059 |
| CUAAAGCAAUAUUACGUUGA | -2.6 ± 0.29 | -4.09 ± 0.23 |
| CUACAGCAAUAUUACGAGCG | -0.442 ± 0.1 | -0.282 ± 0.076 |
| CUACAGCAAUAUUACGAGCU | -2.19 ± 0.19 | -3.01 ± 0.21 |
